First the molecules themselves.
B1: CPEB3 Ribozyme (parent)
chain: GGGGGCCACAGCAGAAGCGUUCACGUCGCGGCCCCUGUCAGAUUCUGGUGAAUCUGCGAAUUCUGCUGU

The data set covers variants of B1. The data set is described as follows: self-cleavage, relative activity (ratio to wild type); higher = more cleavage; co-transcriptional.
GGGGGCCACAGCAGGAGCGUUCACGUCGCGGCCCCUGUCAGAUUCUGGUGAAUCUGCGAGUUCUGCUGU: the self-cleavage is 0.821.

As to GGGGGCCACAGCAGGAGCGUUCACGUCGCGGCCCCUGUCAGAUUCUGGUGCAUCUGCGAAUUCUGCUGU, the self-cleavage was determined as 0.993.

Regarding GGGGGCCACAGCAGGAGCGUUCACGUCGCGGCCCCUGUCAGAUUCUGGUGAAUCUGAGAAUUCUGCUGU, the self-cleavage came out at 0.45.

Regarding GGGGGCCACAGCAGGAGCGUUCACGUCGCGGCCCCUGUCAGAUUCUGGUGAAUCUGGGAAUUCUGCUGU, the self-cleavage was found to be 0.259.

With GGGGGCCACAGCAGGAGCGUUCUCGUCGCGGCCCCUGUCAGAUUCUGGUGAAUCUGCGAAUUCUGCUGU, the self-cleavage came to 1.04.

For GGGGGCCACAGCAGGAGCGUUCGCGUCGCGGCCCCUGUCAGAUUCUGGUGAAUCUGCGAAUUCUGCUGU, the self-cleavage was determined as 0.959.

With GGGGGCCACAGCAGGAGCGUUCACGUCGAGGCCCCUGUCAGAUUCUGGUGAAUCUGCGAAUUCUGCUGU, the self-cleavage turned out to be 0.636.

GGGGGCCACAGCAGGAGCGUUCACGUCGGGGCCCCUGUCAGAUUCUGGUGAAUCUGCGAAUUCUGCUGU: the self-cleavage was 0.458.

Consider GGGGGCCACAGCAGCAGCGUUCACGUCGCGGCCCCUGUCAGAUUCUGGUGAAUCUGCGAAUUCUGCUGC, for which the self-cleavage was 0.978.

With GGGGGCCACAGCAGCAGCGUUCACGUCGCGGCCCCUGUCAGAUUCUGGUGAAUCUGCGAAUUCUGCGGU, the self-cleavage stood at 0.934.

Turning to GGGGGCCACAGCAGGAGCGUUCACGUCGCGGCCACUGUCAGAUUCUGGUGAAUCUGCGAAUUCUGCUGU, the self-cleavage turned out to be 0.764.

Regarding GGGGGCCACAGCAGGAGCGUUCACGUCGCGGCCUCUGUCAGAUUCUGGUGAAUCUGCGAAUUCUGCUGU, the self-cleavage was 1.01.

Take GGGGGCCACAGCAGGAGCGUUCACGUCGCGGCCGCUGUCAGAUUCUGGUGAAUCUGCGAAUUCUGCUGU: the self-cleavage was determined as 0.665.

On to GGGGGCCACAGCAGCAGCGUUCACGACGCGGCCCCUGUCAGAUUCUGGUGAAUCUGCGAAUUCUGCUGU, for which the self-cleavage was found to be 0.48.

As for GGGGGCCACAGCAGCAGCGUUCACGCCGCGGCCCCUGUCAGAUUCUGGUGAAUCUGCGAAUUCUGCUGU, the self-cleavage was 0.73.

GGGGGCCACAGCAGCAGCGUUCACGUCGCGGCCCCUGUCAGACUCUGGUGAAUCUGCGAAUUCUGCUGU: the self-cleavage came out at 0.754.

Take GGGGGCCACAGCAGGAGCGUUUACGUCGCGGCCCCUGUCAGAUUCUGGUGAAUCUGCGAAUUCUGCUGU: the self-cleavage turned out to be 0.287.

Take GGGGGCCACAGCAGGAGCGUUCACGUCGCGGACCCUGUCAGAUUCUGGUGAAUCUGCGAAUUCUGCUGU: the self-cleavage turned out to be 0.816.

GGGGGCCACAGCAGGAGCGUUCACGUCGCGGUCCCUGUCAGAUUCUGGUGAAUCUGCGAAUUCUGCUGU: the self-cleavage was found to be 1.02.

For GGGGGCCACAGCAGGGGCGUUCACGUCGCGGCCCCUGUCAGAUUCUGGUGAAUCUGCGAAUUCUGCUGU, the self-cleavage stood at 0.93.

GGGGGCCACAGCAGGUGCGUUCACGUCGCGGCCCCUGUCAGAUUCUGGUGAAUCUGCGAAUUCUGCUGU: the self-cleavage worked out at 0.691.

For the variant GGGGGCCACAGCAGCAGCGUUCACGUCGCGGCCCCUGUCAGAUUCUGGCGAAUCUGCGAAUUCUGCUGU, the self-cleavage was 0.842.

For GGGGGCCACAGCAGCAGCGUUCACGUCGCGGCCCCUGUCAGAUUCUGGGGAAUCUGCGAAUUCUGCUGU, the self-cleavage was 0.858.

With GGGGGCCACAGCAGGAGCGUUCACGUCGCGGCCCCUGUCAGAUUCUGGUGAAUCUGCGAAUUAUGCUGU, the self-cleavage is 0.799.

For the variant GGGGGCCACAGCAGGAGCGUUCACGUCGCGGCCCCUGUCAGAUUCUGGUGAAUCUGCGAAUUUUGCUGU, the self-cleavage is 0.947.

GGGGGCCACAGCAGGAGCGUUCACGUCGCGGCCCCUGUCAGAUUCUGGUGAAUCUGCGAAUUGUGCUGU: the self-cleavage came out at 0.674.

Regarding GGGGGCCACAGCAGGAGCGUUCACGUCGCGGCCCCUGUCAGCUUCUGGUGAAUCUGCGAAUUCUGCUGU, the self-cleavage was 0.789.

In the case of GGGGGCCACAGCAGGAGCGUUCACGUCGCGGCCCCUGUCAGGUUCUGGUGAAUCUGCGAAUUCUGCUGU, the self-cleavage came to 0.928.

As to GGGGGCCACAGCAGGAGCGUUCAAGUCGCGGCCCCUGUCAGAUUCUGGUGAAUCUGCGAAUUCUGCUGU, the self-cleavage worked out at 0.691.

On to GGGGGCCACAGCAGGAGCGUUCACGUUGCGGCCCCUGUCAGAUUCUGGUGAAUCUGCGAAUUCUGCUGU, for which the self-cleavage was found to be 0.204.

With GGGGGCCACAGCAGGAGCGUUCACGUGGCGGCCCCUGUCAGAUUCUGGUGAAUCUGCGAAUUCUGCUGU, the self-cleavage was 0.316.

As to GGGGGCCACAGCAGGAGCGUUCACGUAGCGGCCCCUGUCAGAUUCUGGUGAAUCUGCGAAUUCUGCUGU, the self-cleavage came out at 0.645.

In the case of GGGGGCCACAGCAGGAGCGUUCACGUCGCGGCCCCUGUCAGAUUCUGGUGACUCUGCGAAUUCUGCUGU, the self-cleavage was found to be 0.949.

As to GGGGGCCACAGCAGCAGCGUUCACGUCGCGGCCCCUGUCAGAUUCUGGUGAAUCCGCGAAUUCUGCUGU, the self-cleavage is 0.545.

In the case of GGGGGCCACAGCAGCAGCGUUCACGUCGCGGCCCCUGUCAGAUUCUGGUGAAUCAGCGAAUUCUGCUGU, the self-cleavage turned out to be 0.435.

In the case of GGGGGCCACAGCAGGAGCGUUCACGUCGCGGCCCGUGUCAGAUUCUGGUGAAUCUGCGAAUUCUGCUGU, the self-cleavage came out at 0.457.

Consider GGGGGCCACAGCAGGAGCGUUCACGUCGCGGCCCAUGUCAGAUUCUGGUGAAUCUGCGAAUUCUGCUGU, for which the self-cleavage was 0.273.

In the case of GGGGGCCACAGCAGGAGCGUUCACGUCGCGGCCCUUGUCAGAUUCUGGUGAAUCUGCGAAUUCUGCUGU, the self-cleavage is 0.96.

As for GGGGGCCACAGCAGGAGCGUUCACGUCGCGGCCCCUGUCAGAUUCUGGUGAAUCUGCGAAUUCUGAUGU, the self-cleavage was 0.828.

The values above are taken from the RNAGym collection of RNA variant scans (doi:10.7554/elife.80360).
